Test results taken from a protein production outcome set (Wang et al. 2014).

Test: label from the status in PepcDB records
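Note: failed if final PepcDB status was selected cloned or expressed and not failed if soluble or beyond.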

Sequence	protein production
MSLFAELTASVNAVRPGRTRMRNYDMPLIVAASTLLLLGLLMVYSASIALADGPRYASYGRYYFVIRHGLFLTAGLLAAAVVLSVPIRVWQRLAVPLFMFALILLVAVLIPGIGREVNGAHRWIPLGPLNFQPSELMKLAALLYAADYTVRKQEHMQAFSRGFLPMACALGGVGMLLLLEPDLGAFMVIVAIAIGILFLGGINGKYFSSLLAVLVGTFLMLIWVSPWRRARLFAYLDPWNEANAYGSAYQLSHSLIALGRGEWFGVGLGASVEKLHYLPEAHTDFLMAVVGEELGFAGVMLVITLFAIIVYRGFDIGRQAIAMERTFAGLVAHGVAMWVGVQAFINMGVCLGLLPTKGLTLPLMSYGGSGIVMNLCALAMLIRVDVENRVMMRGGRV	failed
RRGWVREVTAEVWTGPLAPVADLAGDTGVVLSREADETWLARYQRKGVSEVALRVLESGPSVWFATVPGAEGADGAGGGGGVAAIGRCVVDGRWASFAAVEVDPAQRRRGLATAVMAALARRALDEGASAAWLQVETDNAGARALYAGMGFAAHHSYHHYREPAAAGTDR	failed
MSTTYYWLCLLASIVFEVAGTSVMKLSQETWPLLGMGCMYLLLGLSYFFLARAVVKLPVGVAYAFWEGLGLTLITIVSVTLLDERLDAMRLAALGMVLAGTLLVHHGTAHGRDDEEAEAASGGEGRI	failed
HSHSDKHPVTWQPSKDGDRLIGRILLNKRLKDGSVPRDSGAMLGLKVVGGKMTESGRLCAFITKVKKGSLADTVGHLRPGDEVLEWNGRLLQGATFEEVYNIILESKPEPQVELVVSR	not failed
MNQLIFDFAAHDYPSFDKFLGTENAELVYVLRHKHGQFIYVWGEEGAGKSHLLQAWVAQALEAGKNAAYIDAASMPLTDAAFEAEYLAVDQVEKLGNEEQALLFSIFNRFRNSGKGFLLLGSEYTPQQLVIREDLRTRMAYCLVYEVKP	failed
SSPFPIPNTQYPISNPQFNRWLVPMAGGPNARIAIKLLPALVTLSDDPQIRLTRVFKPWEFRPDMTVLEQAIRQLMRRRQLSSTVIAAPVQADSVVEGVIKLVETEGYDVVVLGASREGLLQQAIQGNIPEAIASGVDSTVILVR	failed
MNRICELLGIEHPIISGGMVWCSGWKLASAVSNCGGLGLIGAGSMHPDNLEHHIRSCKAATDKPFGVNVPLLYPEMDKIMEIIMREHVPVVVTSAGSPKVWTAKLKAAGSKVIHV	failed
MTGYGKTFALLGTCATLLGPPLSAQTGSVLSDLQNEEVQARYRAAAAERIACPRIEGDAALMAAFAKDAASKWDRAAMGCATEYGARAMEALSLPTNLIWAVATFRTDNIETHLQVLGAHLDYFEVLDKSYSAHYQGIEMATELGLRWEQARERSETLMTRIDPLVPKLTEARLLRAAYLLASTLRETPPEVQNTAVAAALEDLQIAIAENPEALDGLGPLLLGQVLAVLPEFLGGDILAAIDLLEQAHALNPTDLSVHHTLVEAYLGERETDKALALLRHAASIDPSTENPQDYADEMKYLGGLALRAGAPDLARQMAGHRSAILAAHPQLDPRKEMAALGHGGADPLTGKKPDDLN	failed
MDALLILGGLLLMVAGYIWVIVLAFGTGLLWGYGSLFPPVALAYIGVHWRTARKGVGLAALGCIPLVVGLALLASHDAARLEAILSLRWLKPEARPPAELAIALSGEFNGKPFAPQSGELIGGVLSLRQGHDFYAQRELQIRLPAQPLGALRLDVLPEDGGALPEVELSWLQPDQDLPEARRLLRGYTLHLDLRPKAPNRLEGEFHLSLPSDYRTTLSGHVELYTDRLRYRHGKVDLGYDSDDTLALVLRDYLQRRFASRDVSLVRAPSWRAASHARPLRIEALVAGQAQVLELTLEKNARREWTVRGDAFPALPAEPATVAAAAPPEPQALPAPGNATLDLELVQVEPQRYSQRLVKATTVRGRIAEGRFTGLDSEGRLVIRREMPGAGEASYLLRPAEIARLELLER	failed
RHLVKVPCRIGASHTTGRLILPTLLANLSAVSDRFDFQVTLANSAEILTAMSQHKLDFGLVEKPLVTDQLNRLPFGHDELVHAGDFASPLWLLREPNSGVRHYTNAFLKARNIQPAQVMVIHSNQII	failed
RRRNQKRANAERERLRQIIDTIPQQVFVKDADGTYTLANKAAAAAHGVAVERLEGATHDEFALSDEQRDFKSDDAAVIENGESVHIEEDGLVEADGSSHTVQTDIVPIEIASGERRALVVATDIT	failed
MITDCCPGFGSVAKYIAVSMLEASFDVASMAKTSTKVFILEVMGRHAGWIAAAGGLASNEDHEVPIIILFPEVTFDQEKFLAKTDHYVKEYGYCTVVVSEGVKGTDGKFLSDQGLRDAFGHAQLGGVAPVIANIVKNGLGLEHHHHHH	not failed
MKNKFIFITVVSILLIAAGIFTTIAMANANSVVVKAEVLNVRSGPGLAYDVTSQARKNEVLRVVGEENQWYKVQLDNGNSGWVASWLVENTDVSAASNSIAIVSSDGGLNVREKPSTSSTSLGLLNNGDQVTVTSQQNGWAQIQYNGKSAWVSSQYLTIRESVTKVDESELQTVTIRDDSTNIRNKPGRDGAVIEKANSGQGFAIQGVQGDWYKIRTTSGEEGYVANWVVDVSDKGQTSSPRSKTTKLSEATIVIDPGHGGNDPGAKGANGTIEKEMTLKTAKKLKEKLESRGAKVILTRNSDKYVSLKSRTNVAAENKADVFISIHFDSLEDSSKGVSGQTTYYYDNSDKSLAESINTTLGNDLPTTNRGSRVGDYYVVRENSQPAVLLELGYLSSAKDERNINSASYRSQIADSVTDGLSNYFSN	failed
MANWLNQLQSLLGQSSSSTSSSADQGLGKLLVSGALGGLAGLLVANKSARKLLTKYGTNALLVGGGAVAGTVLWNKYKDKIRAAHQDEPQFGAQSTPLDERTERLILALVFAAKSDGHIDANERAAIDQQLREAGVEEQGRVLIEQAIEQPLDPQRLATGVRNEEEALEIYFLSCAAIDIDHFMERSYLNALGDALKIPQDVREGIERDLEQQKRTLAE	failed
MEEELPLFSGDSGKPVQATLSSLKMLDVGKWPIFSLCSEEELQLIRQACVFGSAGNEVLYTTVNDEIFVLGTNCCGCLGLGDVQSTIEPRRLDSLNGKKIACLSYGSGPHIVLATTEGEVFTWGHNAYSQLGNGTTNHGLVPCHISTNLSNKQVIEVACGSYHSLVLTSDGEVFAWGYNNSGQVGSGSTVNQPIPRRVTGCLQNKVVVTIACGQMCCMAVVDTGEVYVWGYNGNGQLGLGNSGNQPTPCRVAALQGIRVQRVACGYAHTLVLTDEGQVYAWGANSYGQLGTGNKSNQSYPTPVTVEKDRIIEIAACHSTHTSAAKTQGGHVYMWGQCRGQSVILPHLTHFSCTDDVFACFATPAVTWRLLSVEPDDHLTVAESLKREFDNPDTADLKFLVDGKYIYAHKVLLKIRCEHFRSSLEDNEDDIVEMSEFSYPVYRAFLEYLYTDSISLSPEEAVGLLDLATFYRENRLKKLCQQTIKQGICEENAIALLSAAVKYDAQDLEEFCFRFCINHLTVVTQTSGFAEMDHDLLKNFISKASRVGAFKN	failed
MRYGFMKVAAAVPFVKVADCEYNIERIDRMVHEADAKGVEIMTFPELSITGYSCGDLFFQPFLQERANEALCRLVEQTANTTVMVIVGMPLRVEEKLFNSAVVFQQGKILGAIPKTYLPNYREFQEARWFSPAHTLQYSTISIGQHSVPIGRNLIFKCGTVGVGIEICEDMWTPFTPGTRLCLYGAEVIFNLSSSNENAGKHSYLRSLISGLSSQGICAYVYASSGYGESSTDIVFTGKAFIAEAGEIVEEMERFRYEERMIISDIDVSRIQTERLINSSFKAAVTFHTHDEKFNQLPFKLRSRQESLPMTRRVDRNPFMPEDKDRKERSREMINIQVCGLMQRLLHMGAEHAVIGISGGLDSALALIVCAQAFDRLDLPRKNIIAVTMPGFGTSDRTYRNAFALMEAIGVTIKEIDIKEACLRHFEAIGHNPEVQDTTFENTQARERTQILMNLANIYNAPVIGTGDLSELALGWVTYNGDHMSMYAVNAGIAKTTVQILVDHIAHSGWLDEAASAVLLDIVRTPISPELKPVGQDGNISQKTEDLVGPYELHDFFIYHFLHNEYKPSKIYYLAGVAFKGIYTKAEIKKWMMVFFRRFFAQQYKRNCMPDGPKVSCISLSPRGAWRMASDASSALWLDEIAKFETDLEHHHHHH	failed
MSKIFVNPSAIRAGLADLEMAEETVDLINRNIEDNQAHLQGEPIEVDNLPEDMGRLHLDDGKSPNPGEMAKVGEGKYREDFQMDEGEDPSLLFQSYLDNVGVQIVRQIRSGERFLKIWSQTVEEIISYVAVNFPNPPGKSSEDKSTQTTGRELKKETTPTPSQRESQSSKARMAAQTASGPPALEWSATNEEDDLSVEAEIAHQIAESFSKKYKFPSRSSGILLYNFEQLKMNLDDIVKEAKNVPGVTRLARDGSKLPLRCVLGWVALANSKKFQLLVESNKLSKIMQDDLNRYTSC	not failed
MAKTSRPSKAKQQALVHQLIGKIDAQPEDYHAYYELVVLLTAGQDFEQAEALAMKALGKFDHQQPAADYLRYALGNVYYQAQTYDKALPYYQQITDDQLKQDAYLMSAQALMAQHDYQHALVWAITAQEARPQQLDANLLVADILLALGNNQQASDYYQRAYKIDSQSGRAAFNLGLTAMVLGKPYATWFERAQKLDSQYFKSHQQQLTDIEKMLAAQADNQNH	failed
MRKITQAISAVCLLFALNSSAVALASSPSPLNPGTNVARLAEQAPIHWVSVAQIENSLAGRPPMAVGFDIDDTVLFSSPGFWRGKKNFSPESEDYLKNPVFWEKMNNGWDEFSIPKEVARQLIDMHVRRGDAIFFVTGRSPTKTETVSKTLADNFHIPATSMNPVIFAGDKPGQNTKSQWLQDKNIRIFYGDSDNDITAARDVGARGIRILRASNSTYKPLPQAGAFGEEVIVNSEY	failed
MAEGKAMSEFLPFSRPAMGVEELAAVKEVLESGWITTGPKNQALEQAFCQLTGNQHAIAVSSATAGMHITLMALKIGKGDEVITPSLTWVSTLNMISLLGATPVMVDVDRDTLMVTPEAIESAITPRTKAIIPVHYAGAPADIDAIRAIGERYGIAVIEDAAHAVGTYYKGRHIGAKGTAIFSFHAIKNITCAEGGLIVTDNENLARQLRMLKFHGLGVDAYDRQTWGRAPQAEVLTPGYKYNLTDINAAIALTQLVKLEHLNTRRREIAQQYQQALAALPFQPLSLPAWPHVHAWHLFIIRVDEQRCGISRDALMEALKERGIGTGLHFRAAHTQKYYRERFPTLSLPNTEWNSERICSLPLFPDMTTADADHVITALQQLAGQ	failed
MDGYNIFIVLLAVYIAGLVAIGWYFNKKQKSVTDFWLAGRRIGPSALGFSAAASWLTAGGILAVIGYYMLQGMGSIWAFVAPNILALLIIALLVGKIKNLPAITQPELLEQRYGSAVRWPIALIITVVMILFAVADVTGFSLVLQVFYGVDPLYAAAIVAIAVSLYVTMGGLSAVVWTDVVQFAFLSIFTIAMAFAAVGTVADGGLNTPAISSSELFGNVSYDWWNPLSIGIPMVLIFVFAIIPGWITEQDPWQKVWAAKDAKSARLGMVFGSLMITVVFAACAVIAIAFNNIYPDIAGMGFPAGMAQAEPALLAFVSERFVSAPLIVALSAIGLAAASMSCADTFATSGASCISRDIFQRYIKPDATMKEMLVVNRISVLIIVLAATAGSFVIPNIIDAIHIATFIASASYFFPLMGGLYWKRATKEGAFAGMVVGFVVQVTLVSLDLIKTPPMAANYLESVHPALMSHGVIVGMGLSAIAFFGVSLMTKPSSRINLAPFFEEEAEELAHYEAREIDEKDPTYGAFLKNVDEKVAGERAHLQLNLRASGALSWHELVEKLKSSSPAWVTPTGLDSVYRLTHGDMLACVTVTRGSEERDIWLKAEPRLETVGRQKKELFTAYEELKKVLGQKGVNLDFY	failed
MWIVLWPGLTGLPDSLVLLARVGGCSVLYDTGSGEPGSIVALAANLASAGVKPWSINVAIVSHAHVPSSGGARWLHDNHRVTIAARRPDSRWIEEGDPVKTAAVDYGLPTKPVPIGLELEREGRMPGECEGVEVLFTPGHTPGSVSVSLDTGDATVLAVSDALGRLKRDWGSSEREWMESLDKISSRDPDYLCTSVTCMDRRAAKAFLDEIREKGPVWDVENSSGDGPG	failed
